From patent publication US20250034271A1 (EUCURE BEIJING BIOPHARMA, published 2025) come the findings set out here.

Changes are numbered by the printed parent chain. Numbers in names are those of the source.

The target of this assay is T1, Histidine-tagged human CD40 protein (hCD40-His) (human, UniProt P25942 21-193).
T1 construct: not shown: histidine tag
The assay is described as follows: SPR, Biacore T200; antibody on Protein A chip, hCD40-His injected; 1:1 fit. The method, then: The binding affinity of the anti-hCD40 antibodies were measured using surface plasmon resonance (SPR) using Biacore (Biacore, INC, Piscataway N.J.) T200 biosensor equipped with pre-immobilized Protein A sensor chips.
Anti-hCD40 antibodies were collected by transfecting CHO-S cells and then purified. The antibodies (1 μg/mL) were injected into Biacore T200 biosensor at 10 μL/min for about 24-33 seconds to achieve to a desired protein density (about 44-57 response units (RU)). […] Dissociation was monitored for 300 seconds. The chip was regenerated after the last injection of each titration with Glycine (pH 2.0, 30 μL/min for 12 seconds).

T1 sequence (P25942 21-193 limits assumed): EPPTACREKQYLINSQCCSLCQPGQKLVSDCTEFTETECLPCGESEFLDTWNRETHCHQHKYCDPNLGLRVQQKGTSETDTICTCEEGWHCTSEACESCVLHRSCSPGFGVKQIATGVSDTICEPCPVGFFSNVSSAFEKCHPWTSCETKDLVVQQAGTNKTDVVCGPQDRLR

B1: 4H6-H2K2-IgG4 (antibody, V domains shown)
VH: EVQLQESGPGLVKPSQTLSLTCTVSGDSVSSGYWNWIRKHPGKKLEWIGFISYSGSTYYTPSLKSRVTISRDTSKNQFSLKLSSVTAADTAVYYCARFRRYDDGVDYWGQGTLVTVSS
VL: DIQMTQSPSAMSASVGDRVTITCRASHEISGYLSWIQQKPGGTIKRLINAASTLASGVPSRFSGSRSGTEFTLTISSLQPEDFADYYCLQYSSYPWTFGGGTKLEIK
notes: Humanized
In general, Kd refers to the constant that tells how readily two partners part at equilibrium. By koff is commonly meant the first-order rate constant of dissociation. Low values mean slow dissociation, high ones fast dissociation. As a reminder, the kon is a measure of how fast the partners come together. A high value points to fast association. B1: binding was put at a Kd of 138 nM, the koff is 0.057 s⁻¹ and the kon was 414000 M⁻¹ s⁻¹.

B2: 4H6-H2K1-IgG4 (antibody, V domains shown)
VH: B1 VH
VL: B1 VL with I36F, T43V, D85T
notes: Humanized
For B2, the Kd amounted to 447 nM, the koff came to 0.227 s⁻¹ and the kon was 507000 M⁻¹ s⁻¹.

B3: 4H6-H3K3-IgG4 (antibody, V domains shown)
VH: B1 VH with W47Y, I48M, V67I, Y94F
VL: B1 VL with F71Y
notes: Humanized
In turn, B3 returned a dissociation constant (Kd) of 91.6 nM, a koff of 0.0286 s⁻¹ and a kon of 312000 M⁻¹ s⁻¹.

B4: 4H6-H4K1-IgG4 (antibody, V domains shown)
VH: B1 VH with H40F, W47Y, I48M, V67I, Y94F
VL: B1 VL with I36F, T43V, D85T
notes: Humanized
As for B4, the Kd turned out to be 145 nM, the off-rate (koff) came out at 0.0269 s⁻¹ and the on-rate constant (kon) was 185000 M⁻¹ s⁻¹.

B5: 4H6-H4K3-IgG4 (antibody, V domains shown)
VH: B1 VH with H40F, W47Y, I48M, V67I, Y94F
VL: B1 VL with F71Y
notes: Humanized
Turning to B5, the Kd worked out at 78.8 nM, the koff is 0.0257 s⁻¹ and the kon is 327000 M⁻¹ s⁻¹.

B6: 4H6-H3K1-IgG4 (antibody, V domains shown)
VH: B1 VH with W47Y, I48M, V67I, Y94F
VL: B1 VL with I36F, T43V, D85T
notes: Humanized
B6 yielded a Kd of 413 nM, a koff of 0.0342 s⁻¹ and a kon of 82700 M⁻¹ s⁻¹.

B7: 4H6-H1K1-IgG4 (antibody, V domains shown)
VH: B1 VH with E1Q
VL: B1 VL with I36F, T43V, D85T
notes: Humanized
Turning to B7, binding was characterised by a dissociation constant (Kd) of 7720 nM, the dissociation rate constant (koff) amounted to 0.167 s⁻¹ and the kon is 21700 M⁻¹ s⁻¹.

B8: 4H6-H2K3-IgG4 (antibody, V domains shown)
VH: B1 VH
VL: B1 VL with F71Y
notes: Humanized
Take B8: binding was put at a Kd of 253 nM, the koff worked out at 0.0659 s⁻¹ and the kon stood at 260000 M⁻¹ s⁻¹.

B9: 4H6-H4K4-IgG4 (antibody, V domains shown)
VH: B1 VH with H40F, W47Y, I48M, V67I, Y94F
VL: B1 VL with I21L, F71Y
notes: Humanized
B9: the Kd is 88.9 nM, the koff is 0.0278 s⁻¹ and the association rate constant (kon) was 312000 M⁻¹ s⁻¹.

B10: 4H6-H3K4-IgG4 (antibody, V domains shown)
VH: B1 VH with W47Y, I48M, V67I, Y94F
VL: B1 VL with I21L, F71Y
notes: Humanized
Regarding B10, the affinity, expressed as Kd, was 94.8 nM; the koff was 0.0282 s⁻¹; the on-rate (kon) turned out to be 298000 M⁻¹ s⁻¹.

B11: 4H6-H1K4-IgG4 (antibody, V domains shown)
VH: B1 VH with E1Q
VL: B1 VL with I21L, F71Y
notes: Humanized
For B11, binding was put at a Kd of 465 nM, the koff was 0.0695 s⁻¹ and the kon was found to be 149000 M⁻¹ s⁻¹.

B12: 4H6-H2K4-IgG4 (antibody, V domains shown)
VH: B1 VH
VL: B1 VL with I21L, F71Y
notes: Humanized
Turning to B12, the Kd stood at 378 nM, the koff worked out at 0.0742 s⁻¹ and the kon is 196000 M⁻¹ s⁻¹.

B13: 4H6-H1K3-IgG4 (antibody, V domains shown)
VH: B1 VH with E1Q
VL: B1 VL with F71Y
notes: Humanized
As for B13, binding was characterised by a dissociation constant (Kd) of 229 nM, the koff amounted to 0.0554 s⁻¹ and the kon turned out to be 242000 M⁻¹ s⁻¹.

B14: 4H6-H1K2-IgG4 (antibody, V domains shown)
VH: B1 VH with E1Q
VL: B1 VL
notes: Humanized
B14 had a Kd of 164 nM, a koff of 0.0632 s⁻¹ and a kon of 386000 M⁻¹ s⁻¹.

B15: 7F10-mHvKv-IgG1-N297A (antibody, V domains shown)
VH: EVKLVESGGGLVQPGGSLKLSCATSGFTFSDYYMYWVRQTPEKRLEWVAYISYGGDSTFYPDTVRGRFTISRDNAKNALYLQMSRLKSEDTAVYYCARPAPSAHSYYLDYWGQGTTLTVSS
VL: DIQMTQTTSSLSASLGDRVTISCRASQDISNYLNWYQQKPDGTVKLLIYYTSRLHSGLPSRFSGSGSGTDYSLTISNLEQEDIATYYCQQGKTLPFTFASGTKLEIK
notes: Chimeric; human IgG1 constant regions with N297A mutation (EU numbering) in the Fc region
Take B15: the Kd is 194 nM, the koff worked out at 0.0292 s⁻¹ and the kon is 150000 M⁻¹ s⁻¹.

B16: 7F10-H2K3-IgG4 (antibody, V domains shown)
VH: B15 VH with K3Q, K19R, T40A, E42G, A78S, R85S, S88A, T116L
VL: B15 VL with T7S, L15V, S22T, D41G, T43A, S72T, N77S, E79Q
notes: Humanized
In turn, B16 showed a Kd of 182 nM, a koff of 0.0313 s⁻¹ and an on-rate (kon) of 172000 M⁻¹ s⁻¹.

B17: 7F10-H3K1-IgG4 (antibody, V domains shown)
VH: B15 VH with K19R, T40A, S88A
VL: DIQMTQSPSSLSASVGDRVTITCRASQDISNYLNWYQQKPGGAVKLLIYYTSRLHSGLPSRFSGSGSGTDFTFTISSLQPEDIATYYCQQGKTLPFTFASGTKLEIK
notes: Humanized
Take B17: the affinity, expressed as Kd, was 430 nM; the koff amounted to 0.0568 s⁻¹; the kon turned out to be 132000 M⁻¹ s⁻¹.

B18: 7F10-H1K3-IgG4 (antibody, V domains shown)
VH: B15 VH with K3Q, K19R, T40A, E42G, A78S, S84N, R85S, K87R, S88A, T116L
VL: B17 VL with P8T, F71Y, F73L, P80Q
notes: Humanized
With B18, the affinity, expressed as Kd, was 535 nM; the koff came to 0.0391 s⁻¹; the kon amounted to 73100 M⁻¹ s⁻¹.

B19: 7F10-H1K1-IgG4 (antibody, V domains shown)
VH: B15 VH with K3Q, K19R, T40A, E42G, A78S, S84N, R85S, K87R, S88A, T116L
VL: B17 VL
notes: Humanized
Consider B19, for which the Kd stood at 291 nM, the koff amounted to 0.0514 s⁻¹ and the kon was found to be 177000 M⁻¹ s⁻¹.

B20: 7F10-H2K4-IgG4 (antibody, V domains shown)
VH: B15 VH with K3Q, K19R, T40A, E42G, A78S, R85S, S88A, T116L
VL: B17 VL with P8T, G41D, A43T, F71Y, F73L, P80Q
notes: Humanized
In turn, B20 displayed a Kd of 202 nM, a koff of 0.038 s⁻¹ and a kon of 188000 M⁻¹ s⁻¹.

B21: 7F10-H2K1-IgG4 (antibody, V domains shown)
VH: B15 VH with K3Q, K19R, T40A, E42G, A78S, R85S, S88A, T116L
VL: B17 VL
notes: Humanized
In turn, B21 returned a dissociation constant Kd of 540 nM, a koff of 0.065 s⁻¹ and a kon of 120000 M⁻¹ s⁻¹.

B22: 7F10-H3K3-IgG4 (antibody, V domains shown)
VH: B15 VH with K19R, T40A, S88A
VL: B17 VL with P8T, F71Y, F73L, P80Q
notes: Humanized
For the molecule B22, binding was characterised by a dissociation constant (Kd) of 238 nM, the koff came out at 0.0314 s⁻¹ and the kon is 132000 M⁻¹ s⁻¹.

B23: 7F10-H1K4-IgG4 (antibody, V domains shown)
VH: B15 VH with K3Q, K19R, T40A, E42G, A78S, S84N, R85S, K87R, S88A, T116L
VL: B17 VL with P8T, G41D, A43T, F71Y, F73L, P80Q
notes: Humanized
In turn, B23 gave an equilibrium dissociation constant (Kd) of 278 nM, a koff of 0.0321 s⁻¹ and a kon of 115000 M⁻¹ s⁻¹.

B24: 7F10-H2K2-IgG4 (antibody, V domains shown)
VH: B15 VH with K3Q, K19R, T40A, E42G, A78S, R85S, S88A, T116L
VL: B17 VL with F71Y
notes: Humanized
The molecule B24 displayed a Kd of 505 nM, a koff of 0.0534 s⁻¹ and a kon of 106000 M⁻¹ s⁻¹.

B25: 7F10-H3K4-IgG4 (antibody, V domains shown)
VH: B15 VH with K19R, T40A, S88A
VL: B17 VL with P8T, G41D, A43T, F71Y, F73L, P80Q
notes: Humanized
In the case of B25, the Kd turned out to be 184 nM, the koff is 0.0274 s⁻¹ and the kon was 149000 M⁻¹ s⁻¹.

B26: 7F10-H1K2-IgG4 (antibody, V domains shown)
VH: B15 VH with K3Q, K19R, T40A, E42G, A78S, S84N, R85S, K87R, S88A, T116L
VL: B17 VL with F71Y
notes: Humanized
B26: the Kd came out at 594 nM, the koff was found to be 0.0491 s⁻¹ and the kon is 82800 M⁻¹ s⁻¹.

B27: 7F10-H3K2-IgG4 (antibody, V domains shown)
VH: B15 VH with K19R, T40A, S88A
VL: B17 VL with F71Y
notes: Humanized
The molecule B27 registered a dissociation constant (Kd) of 380 nM, a koff of 0.0482 s⁻¹ and a kon of 127000 M⁻¹ s⁻¹.

B28: 6A7-mHvKv-IgG4 (antibody, V domains shown)
VH: QVQLQQPGAELVKPGASVKLSCKASGYTFISYYIYWVKQRPGQGLEWIGGINPRNGGTNFNEKFKSKATLTVDKSSSTAYMQLSSLTSEDSAVYYCTRHGNGVYWGQGTTLTVSS
VL: DVVMTQTPLSLPVSLGDQASISCRSSQSLLHSNGNTYLHWYLQKPGQSPNHLIYQVSNRFSGVPDRFSGSGSGTDFTLKISRVEAEDLGVYFCSQTTHVPWTFGGGTKLEIK
notes: Chimeric; also called chimeric anti-hCD40 antibody 6A7-mHvKv-IgG4
For the molecule B28, the Kd is 2.6 nM, the koff came to 0.000259 s⁻¹ and the kon was determined as 99400 M⁻¹ s⁻¹.

B29: 6A7-H2K2-IgG4 (antibody, V domains shown)
VH: QVQLVQSGAEVKKPGASVKVSCKASGYTFISYYIYWVRQAPGQGLEWIGGINPRNGGTNFNEKFKSRATLTVDTSISTAYMELSRLRSEDTAVYYCARHGNGVYWGQGTTVTVSS
VL: B28 VL with T7S, S14T, D17Q, Q18P, L42Q, K44R, L88V, L109V
notes: Humanized
B29 came in with a Kd of 189 nM, a koff of 0.00496 s⁻¹ and a kon of 26300 M⁻¹ s⁻¹.

B30: 6A7-H1K1-IgG4 (antibody, V domains shown)
VH: B29 VH with I48M, A68V
VL: DVVMTQSPLSLPVTLGQPASISCRSSQSLLHSNGNTYLHWFQQRPGQSPRHLIYQVSNRFSGVPDRFSGSGSGTDFTLKISRVEAEDVGVYYCSQTTHVPWTFGGGTKVEIK
notes: Humanized
B30 registered a Kd of 280 nM, an off-rate constant (koff) of 0.00571 s⁻¹ and a kon of 20400 M⁻¹ s⁻¹.
